Read-outs that look alike come from different tables or passages of the source.
B1: PgpB (Escherichia coli K-12) (protein)
chain: RSIARRTAVGAALLLVMPVAVWISGWRWQPGEQSWLLKAAFWVTETVTQPWGVITHLILFGWFLWCLRFRIKAAFVLFAILAAAILVGQGVKSWIKDKVQEPRPFVIWLEKTHHIPVDEFYTLKRAERGNLVKEQLAEEKNIPQYLRSHWQKETGFAFPSGHTMFAASWALLAVGLLWPRRRTLTIAILLVWATGVMGSRLLLGMHWPRDLVVATLISWALVAVATWLAQRICGPLTPPAEENREIAQREQES
notes: N-terminal His-tagged PgpB purified in DDM
B2: PgpC (Escherichia coli K-12) (protein)
chain: MATHERRVVFFDLDGTLHQQDMFGSFLRYLLRRQPLNALLVLPLLPIIAIALLIKGRAARWPMSLLLWGCTFGHSEARLQTLQADFVRWFRDNVTAFPLVQERLTTYLLSSDADIWLITGSPQPLVEAVYFDTPWLPRVNLIASQIQRGYGGWVLTMRCLGHEKVAQLERKIGTPLRLYSGYSDSNQDNPLLYFCQHRWRVTPRGELQQLE
notes: N-terminal His-tagged PgpC purified in DDM
B3: PgpA (Escherichia coli K-12) (protein)
chain: MTILPRHKDVAKSRLKMSNPWHLLAVGFGSGLSPIVPGTMGSLAAIPFWYLMTFLPWQLYSLVVMLGICIGVYLCHQTAKDMGVHDHGSIVWDEFIGMWITLMALPTNDWQWVAAGFVIFRILDMWKPWPIRWFDRNVHGGMGIMIDDIVAGVISAGILYFIGHHWPLGILS
notes: N-terminal His-tagged PgpA purified in DDM

Legend:
Format in all cases: biochemical, Escherichia coli
[1] = substrate: CCCCCCCC/C=C\CCCCCCCC(=O)OC[C@@H](O)COP(=O)(O)O; test: phosphate release kinetics, surface dilution model (Km)
[2] = substrate: O=CC(O)COP(=O)(O)O; test: phosphate release kinetics, Michaelis-Menten (Km); settings: Mg2+
[3] = substrate: O=P(O)(O)OCC(O)CO; test: phosphate release kinetics, Michaelis-Menten (Km); settings: Mg2+

Row | Protein | Km [1] | Km ([1]; Mg2+) | Km [2] | Km [3]
1 | B1 | 179.6 µM |  |  | 
2 | B2 |  | 190.2 µM |  | 
3 | B3 |  | 83.8 µM | 765 µM | 327 µM

From article PMC11629553, “Mechanistic diversity and functional roles define the substrate specificity and ligand binding of bacterial PGP phosphatases” (The Journal of Biological Chemistry, 2024)
